Assay results taken from article PMC2927781.

Tests used:
Test in all cases: ITC; H3K4me2 peptide injected (19 x 2 ul) into the protein; 25 °C; 25 mM Tris pH 8.0, 100 mM NaCl; iTC 200; one-site model
[1] = molecular target: PHD_(Pygo1)–HD1B9L complex (human) (UniProt Q9Y3Y4)
[2] = molecular target: PHD_(Pygo2)–HD1B9L complex with Pygo2 I344A (human) (UniProt Q9BRQ0)
[3] = molecular target: PHD_(Pygo2)–HD1B9L complex with Pygo2 W377F (human) (UniProt Q9BRQ0)
[4] = molecular target: PHD_(Pygo1)–HD1_(BCL9) complex (6×His-tagged, PHD linked to HD1) (human) (UniProt Q9Y3Y4)
[5] = molecular target: PHD_(Pygo2)–HD1_(BCL9) complex (human) (UniProt Q9BRQ0)
[6] = molecular target: free PHD finger of human Pygo1 (human)
[7] = molecular target: PHD_(Pygo2)–HD1B9L complex (6×His-tagged, PHD linked to HD1; ITC construct) (human) (UniProt Q9BRQ0)
[8] = molecular target: free PHD finger of human Pygo2 (human)

stoichiometry N [1]: 1
Kd [2]: 19.5 µM
Kd [3]: 11.5 µM
fold increase in affinity over free PHD (Pygo1) [4]: 2 fold
stoichiometry N [4]: 1
stoichiometry N [5]: 1
Kd [6]: 5.93 µM
stoichiometry N [6]: 1
Kd [7]: 1.83 µM
stoichiometry N [7]: 1
Kd [8]: 4.95 µM
stoichiometry N [8]: 1
Substance: 15-mer H3K4me2 histone tail peptide (histone H3 tail dimethylated at lysine 4)
